Reference: article doi:10.1101/2023.08.25.554718 (2023)
Where two headings read alike, the source gives them in different places.

Assays:
[1] = molecular target: T1, CX3CR1 nucleosome (human core histones, wild type) (human, UniProt P04908 1-124; O60814 1-124; P68431 1-136; P62805 1-103)
[2] = molecular target: T1, CX3CR1 nucleosome (human core histones, …); assay: with scFv

B1: MBP-DBDC/EBPα (protein)
chain: MHLQPGHPTPPPTPVPSPHAAPALGAAGLPGPGSALKGLAGAHPDLRTGGGGGGSGAGAGKAKKSVDKNSNEYRVRRERNNIAVRKSRDKAKQRNVETQQKVLELTSDNDRLRKRVEQLSRELDTLRGIFRQLPESSLVKAMGNCA
[1]
  Kd: 1700 nM
[2]
  Kd: 1500 nM
